The results in this text go back to US20030232009A1 (Amgen, published 2003).

In one experiment the target is T1, Human 20.1 peptide (human).
T1 construct: synthetic peptide from the RB exon
T1 peptide: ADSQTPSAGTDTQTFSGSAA
Put plainly: recombinant antibody on peptide.

For experiment [1], the target named is T2, Human 46 mer peptide (RB exon of human CD45) (human).
T2 construct: synthetic peptide; also called CD45RB 46 mer
T2 peptide: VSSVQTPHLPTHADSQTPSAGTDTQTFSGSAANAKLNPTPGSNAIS
Put plainly: recombinant antibody on peptide.

A further experiment concerns the target T3, Human 18 mer peptide (human).
T3 construct: synthetic peptide from the RB exon
T3 peptide: VSSVQTPHLPTHADSQTPC
Put plainly: recombinant antibody on peptide.

The target in experiment [2] is T4, Macaque 46 mer peptide (RB exon of macaque CD45RB) (macaque).
T4 construct: synthetic peptide
T4 peptide: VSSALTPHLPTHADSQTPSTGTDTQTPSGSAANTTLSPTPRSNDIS
Put plainly: recombinant antibody on peptide.

The target in another experiment is T5, Human 20.2 peptide (human).
T5 construct: synthetic peptide from the RB exon
T5 peptide: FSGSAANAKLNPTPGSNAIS
The experiment in a line: recombinant antibody on peptide.

Experiment [3] has as its target T6, Human CD45RB (format not stated) (human, UniProt P08575-9 26-1192, limits assumed).
T6 construct: also called RB exon of CD45
T6 sequence (looked up): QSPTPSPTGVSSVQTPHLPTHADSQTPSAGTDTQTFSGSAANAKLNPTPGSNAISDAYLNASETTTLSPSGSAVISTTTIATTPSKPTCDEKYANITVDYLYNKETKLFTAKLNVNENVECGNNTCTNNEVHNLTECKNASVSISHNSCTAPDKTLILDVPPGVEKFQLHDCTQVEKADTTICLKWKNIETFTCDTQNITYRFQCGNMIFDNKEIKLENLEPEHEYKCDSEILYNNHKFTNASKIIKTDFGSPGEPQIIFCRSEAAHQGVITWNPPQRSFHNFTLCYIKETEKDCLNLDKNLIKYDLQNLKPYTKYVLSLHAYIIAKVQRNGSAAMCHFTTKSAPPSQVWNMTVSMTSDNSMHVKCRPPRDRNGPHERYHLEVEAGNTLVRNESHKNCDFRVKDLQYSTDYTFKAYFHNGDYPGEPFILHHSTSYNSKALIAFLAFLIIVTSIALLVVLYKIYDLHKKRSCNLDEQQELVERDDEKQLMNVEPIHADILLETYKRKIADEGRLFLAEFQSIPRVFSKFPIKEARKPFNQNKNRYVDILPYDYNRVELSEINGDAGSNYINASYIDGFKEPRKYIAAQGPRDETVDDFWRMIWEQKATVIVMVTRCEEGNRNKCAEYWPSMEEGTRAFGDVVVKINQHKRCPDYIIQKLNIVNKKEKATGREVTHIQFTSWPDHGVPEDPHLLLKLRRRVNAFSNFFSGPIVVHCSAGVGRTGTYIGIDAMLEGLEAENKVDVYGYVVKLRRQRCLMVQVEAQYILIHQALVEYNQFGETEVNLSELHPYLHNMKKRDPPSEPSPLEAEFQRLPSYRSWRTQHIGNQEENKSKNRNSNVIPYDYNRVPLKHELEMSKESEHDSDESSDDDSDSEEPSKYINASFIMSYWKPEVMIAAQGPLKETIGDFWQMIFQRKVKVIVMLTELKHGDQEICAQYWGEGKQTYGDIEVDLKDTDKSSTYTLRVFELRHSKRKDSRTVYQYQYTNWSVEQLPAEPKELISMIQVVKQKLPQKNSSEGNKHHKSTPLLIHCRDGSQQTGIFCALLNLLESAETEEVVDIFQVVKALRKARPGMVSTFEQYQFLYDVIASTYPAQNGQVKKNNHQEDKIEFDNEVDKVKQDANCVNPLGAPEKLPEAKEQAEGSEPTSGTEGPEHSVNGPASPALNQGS
Put plainly: screening of harvest 9.

The target of experiment [4] is T7, chimeric CD45RB (full length human CD45RB with the macaque RB exon) transiently expressed in CHO cells (human; macaque, UniProt P08575-9 26-33; P08575-9 81-1192).
T7 construct: whole chimeric protein on CHO cells; also called Macaque CD45RB CHO
T7 sequence: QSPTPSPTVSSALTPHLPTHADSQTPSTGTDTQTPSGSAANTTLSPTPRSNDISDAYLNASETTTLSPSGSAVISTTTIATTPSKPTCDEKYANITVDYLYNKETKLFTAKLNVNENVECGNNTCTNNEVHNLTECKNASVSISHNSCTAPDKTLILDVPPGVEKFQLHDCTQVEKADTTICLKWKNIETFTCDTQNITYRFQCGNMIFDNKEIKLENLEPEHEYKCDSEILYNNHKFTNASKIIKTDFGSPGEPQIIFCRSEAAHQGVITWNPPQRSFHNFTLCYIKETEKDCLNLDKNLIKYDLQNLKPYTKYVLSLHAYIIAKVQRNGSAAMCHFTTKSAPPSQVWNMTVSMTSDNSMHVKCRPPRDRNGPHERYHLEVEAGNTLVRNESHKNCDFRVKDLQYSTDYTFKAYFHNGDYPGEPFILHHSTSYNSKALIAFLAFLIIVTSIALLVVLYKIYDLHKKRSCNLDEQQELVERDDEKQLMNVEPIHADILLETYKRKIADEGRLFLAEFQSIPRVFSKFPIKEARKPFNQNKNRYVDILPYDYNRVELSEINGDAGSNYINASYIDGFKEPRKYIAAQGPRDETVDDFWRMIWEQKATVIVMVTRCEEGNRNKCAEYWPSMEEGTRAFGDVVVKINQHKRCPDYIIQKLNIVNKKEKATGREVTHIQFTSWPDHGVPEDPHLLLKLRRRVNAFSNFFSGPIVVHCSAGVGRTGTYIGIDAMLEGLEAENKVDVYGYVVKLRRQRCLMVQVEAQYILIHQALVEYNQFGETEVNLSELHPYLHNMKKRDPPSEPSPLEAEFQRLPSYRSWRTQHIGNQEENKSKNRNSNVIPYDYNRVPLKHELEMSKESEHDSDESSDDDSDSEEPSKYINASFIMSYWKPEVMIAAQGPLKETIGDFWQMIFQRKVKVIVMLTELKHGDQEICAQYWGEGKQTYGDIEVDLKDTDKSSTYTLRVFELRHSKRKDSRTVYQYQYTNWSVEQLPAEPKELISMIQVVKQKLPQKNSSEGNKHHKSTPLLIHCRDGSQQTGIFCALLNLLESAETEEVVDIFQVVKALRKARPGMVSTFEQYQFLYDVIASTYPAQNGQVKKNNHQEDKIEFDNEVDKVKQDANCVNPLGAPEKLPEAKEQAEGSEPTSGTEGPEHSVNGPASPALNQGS
Put plainly: transiently transfected CHO cells.

For experiment [5], the target named is T6, Human CD45RB (format not stated). Put plainly: screening of harvest 2.

B1: AB-CD45RB-XG2-648 (antibody, human IgG2, V domains shown)
VH: QVQLVESGGGLVKPGGSLRLSCAASGFTFNVYYMNWIRQAPGKGLEWVSYISTSSSAIYYADSVKGRFTISRDNAKNSLYLQMNSLRAEDTAVYYCARRTGSTTVFDYWGQGTLVTVSS
VL: EIVLTQSPATLSVSPGERATLSCRASQSINNNLAWYQQKPGQAPRLLIYGASTRATGIPAKFSGSGSGTEFTLTISSLQSENFAVYYCQQYNKWPLTFGGGTKVEIK
notes: recombinant human IgG2 kappa; also called sc648
In the case of B1, the binding result with Human 20.1 peptide is “no binding”; in experiment [1], “no binding”; with Human 18 mer peptide, “no binding”; in experiment [2], “no binding”; with Human 20.2 peptide, “no binding”; in experiment [3], “binds”.

B2: AB-CD45RB-XG2-009 (antibody, human IgG2, V domains shown)
VH: QVQLVESGGGVVQPGRSLRLSCAASGFTFSNYGMHWVRQAPGKGLEWVAVIWYDGSKRFYAGSVKGRFTISRDNSKNTLYLQMNSLRAEDTAVYYCARTTDYWGQGTMVTVSS
VL: DIVMTQTPLSLSVTPGQPASISCKSSQSLLHSDGKTYLYWYLQKPGQPPQLLIYEVSNRFSGVPDRFSGSGSGTDFTLKISRVEAEDVGLYWCMQSIQLPITFGQGTRLEIK
notes: recombinant human IgG2 kappa; also called sc009; 16C9 (sc009)
Turning to B2, the binding result is on record as “no binding” with Human 20.1 peptide; “binds” in experiment [1]; “no binding” in the experiment with Human 18 mer peptide; “no binding” with Human 20.2 peptide; “no binding” in experiment [4]; “binds” in experiment [5].
